Assay results: US9969795
Numbering of substitutions follows the chain as printed.

B1: AT10_004 mutant C (antibody, V domains shown)
VH: QVQLVQSGAEVRKPGASVKVSCKASGYTFTRHGISWVRQAPGQGLEWMGWISAYTGDTDYAQKFQGRVTMTTDTSTNTAYMELRSLRSDDAAVYYCARLRLQGEVVVPPSQSNWFDPWGQGTLVTVSS
VL: EIVLTQSPATLSLYPGERATLSCRASQSVSRFLAWYQQKPGQAPRLLIYDASNRATGIPARFSGSGSGTDFTLTISSLEPEDFAVYYCQQRYNWLKITFGQGTRLEIKG
B2: AT10_004 mutant B (antibody, V domains shown)
VH: B1 VH
VL: B1 VL with F32Y

Target: recombinant influenza HA3-protein (from H3N2, Wyoming, March 2003, Sino Biological Inc.) (Influenza virus H3N2 (Wyoming, March 2003))
Experiment: SPR imaging (IBIS MX96), antibody captured on anti-human-IgG chip, HA3 1 ug/ml; global 1:1 fit in Scrubber2

| Binder | Kd [nM] | koff [s⁻¹] | kon [M⁻¹ s⁻¹] |
| --- | --- | --- | --- |
| B1 | 0.06 | 1e-06 | 17000 |
| B2 | 0.05 | 1e-06 | 19000 |
